{
  "source": "paper PMC8803338",
  "target": "sarcomeric α-Actin (ACTC1) (mouse (endogenous in heart)) (UniProt P68033)",
  "experiment": "co-IP; heart lysates of CTL and α-MHC-cre DKO mice, mouse anti-α-Actin, Protein A/G beads, Western blot, densitometry (n = 4)",
  "data": [
    {"substance": "sarcomeric α-Actinin (ACTN) (from UniProt Q9JI91 1-894) (natural protein)", "values": [
      {"measurement": "fold change of ACTN co-precipitated with ACTC1, α-MHC-cre DKO hearts against CTL hearts", "value": 0.63, "unit": "fold"}
    ]}
  ]
}
